# Results taken from US20220125947A1 (published 2022).
# B1: VG9B69 (antibody, human IgG1, kappa, V domains shown)
# VH: EVQLVESGGGLVKPGGSLRLSCAASGFTFSSYDINWVRQAPGKGLEWVSSITSSSYYIYYADSVKGRFTISRDNAKNSLYLQMNSLRAEDTAVYYCARDLGVRGVDYYYYGLDVWGQGTMVTVSS
# VL: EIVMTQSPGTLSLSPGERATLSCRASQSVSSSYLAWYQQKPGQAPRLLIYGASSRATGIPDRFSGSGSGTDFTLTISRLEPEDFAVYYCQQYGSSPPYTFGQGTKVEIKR
# notes: IgG1, kappa
# B2: VG9B104 (antibody, human IgG1, kappa, V domains shown)
# VH: EVQLVESGGGLVKPGGSLRLSCAASGFTFSVYSMNWVRQAPGKGLEWVSSIGSSSSYIFYADSVKGRFTISRDNAKNSLYLQMNSLRAEDTAVYYCGRDHDYGGLDYWGQGTLVTVSS
# VL: EIVLTQSPGTLSLSPGERATLSCRASQSVSSSYLAWYQQKPGQAPRLLIYGPSNRATDIPDRFSGTGSGTDFTLTISRLEPEDFAVYYCQQYGRSPLTFGGGTKVEIKR
# notes: IgG1, kappa
# B3: VG9B198 (antibody, human IgG1, lambda, V domains shown)
# VH: QVQLQESGPGLVKPSETLSLTCTVSGDSISSIYWSWIRQSAGKGLEWIGRIYTTDITNYNPSLKSRVTMSADTSKNQLSLKLTSVTAADTAVYYCAKNGYSYGGFNYWGQGTLVTVSS
# VL: QSVLTQPPSVSGAPGQRVTISCTGSSSNIGAGYDVHWYQRLPGTAPKLLIYGDSYRPSGVPDRFSGSKSGTSASLAITGLQAEDEADYYCQSYDSSLSVVVFGGGTKLTVLG
# notes: IgG1, lambda
# B4: VG9B121 (antibody, human IgG1, kappa, V domains shown)
# VH: EVQLVESGGGLVKPGGSLRLSCVASGFTFSDYAMDWVRQAPGKGLDWISSISSTSNYIFYADSVKGRFTISRDNAKNSLYLQMNSLRVEDSAVYYCANSYNWNYGGAFDIWGQGTMVTVSS
# VL: DIQMTQSPGTLSSSPGERATLSCRASQSVSSSYFAWYQQKPGRAPRLLIYGASSRATGIPDRFSGSGSGTDFTLTISRLEPEDFAVYFCQQYGRSPLTFGGGTKVEIKR
# notes: IgG1, kappa
# B5: VG9B463 (antibody, human IgG1, lambda, V domains shown)
# VH: EVQLVESGGGLVKPGGSLRLSCSASGFTFSNYDMNWVRQAPGKGLEWVSSISSSSSYIYYADSVKGRFTISRDNAKNSLYLQMNSLRAEDTAVYHCARDVGVTTDYYYYGMDVWGQGTTVTVSS
# VL: QPVLTQSSSASGTPGQRVTISCSGSSSNIGSNTVNWYQQFPGTAPKLLIYTNTQRPSGVPDRFSGSKSGTLVSLAISGLQSEDEADYYCAAWDDSLNAWVFGGGTKLTVLG
# notes: IgG1, lambda
# B6: VG9B469 (antibody, human IgG1, kappa, V domains shown)
# VH: EVQLVESGGGLVKPGGSLRLSCAASGFTFSHYDMNWVRQAPGKGLEWVSSISSSSSYIFYADSVKGRFTISRDNAKNSLLLQMNSLRAEDTAVYHCARDRGVGDTSDYYSFGLDVWGQGTMVTVSS
# VL: DIVMTQSPGTLSLSPGERATLSCRASQNVSSTYLAWYQQKPGQAPRLLIYGACSRATGIPDRFSGSGSGTDFTLTISRLEPEDYAVYYCQQYGSSPPYTFGRGTKLEIKR
# notes: IgG1, kappa
# Target: γδ T cell receptor on human γδ T cells (AG000003021) (human)
# Test: flow cytometry, DRC binding at 37°C on human γδ T cells
# Procedure: Binding of antibodies to human γδ T cells or SKW cell lines expressing Vγ9/Vδ2, Vγ9/Vδ2 or Vγ5/Vδ2 was carried out by flow cytometry. Briefly, the cells were centrifuged at 300×g for 5 minutes and the pellet was resuspended in 34 ml fresh media (in RPMI+10% FBS). 50 μL of the cells were then plated (44K cells/well) into assay plates. Samples were incubated for one hour at 37° C. in tissue culture (TC) incubator followed by wash steps by adding 100 μl FACS staining buffer. Secondary detention antibodies (A647 conjugated anti-human IgG Fc specific antibody (2 μg/mL) along with AF488 anti mouse CD3, clone OKT3 at 1 ug/mL) were added at 50 μL/well to appropriate wells according to the plate map. After incubating for 60 minutes at 37° C. in the TC incubator, cells were again washed as described above. This is followed by resuspension in 20 μL/well running buffer containing 1:1000 dilution of Sytox blue dead cell stain and the plates were run on iQue Screener.
# Gating and data analysis: Human anti-human Vγ9 antibody (VG9B2 mAb at 10 nM) was used to mark the gating of positive population. All cells were first gated for singlets on SCS-A vs. SCS-H dot plot, live/dead followed by CD3 positive population, and this subset of CD3 positive population was gated for Vγ9 positive binding using positive control mAb. Cells were also assessed for cell binding of control mAbs by RL1 (A647) Geomeans from the live cell population. Advanced metrics were used and normalization metrics were chosen to calculate fold over background wells containing secondary antibody alone (designated as ‘background’ within ForeCyt settings).
row,Binder,Max. Activity [fold over background]
1,B1,3110
2,B2,3050
3,B3,3040
4,B4,3670
5,B5,3030
6,B6,3000
